The results in this text go back to patent US20240400675A1 (published 2024).

The chains are these.
T1: human CLDN9 (UniProt O95484 1-217)
T1 chain: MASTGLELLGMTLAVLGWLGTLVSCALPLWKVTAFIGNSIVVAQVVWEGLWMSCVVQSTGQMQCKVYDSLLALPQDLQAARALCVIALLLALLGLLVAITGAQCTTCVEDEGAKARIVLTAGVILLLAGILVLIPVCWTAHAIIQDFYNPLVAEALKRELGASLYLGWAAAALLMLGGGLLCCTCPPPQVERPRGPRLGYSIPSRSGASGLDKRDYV

T2: human CLDN6 (UniProt P56747 1-220)
T2 chain: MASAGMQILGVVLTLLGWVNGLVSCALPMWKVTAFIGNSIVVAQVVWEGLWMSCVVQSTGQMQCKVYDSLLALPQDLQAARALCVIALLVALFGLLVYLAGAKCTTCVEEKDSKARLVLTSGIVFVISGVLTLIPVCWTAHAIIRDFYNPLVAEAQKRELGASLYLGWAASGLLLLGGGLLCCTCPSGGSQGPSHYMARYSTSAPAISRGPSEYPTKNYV

B1: XENP36025 H2.75_L1 (antibody, V domains shown)
VH: EVQLVQSGAEVKKPGESLRISCKTSGYTFTEYTMHWVRQMPGKSLEWMGGIDPHNGNTHYNQKFQGHVTISVDKSISTAYLQWSSLKASDTAMYYCARIYYFGRLYFDFWGAGTLVTVSS
VL: DIQMTQSPSSLSASVGDRVTITCQASEDIYNRLAWYQQKPGKVPKLLISGATSLETGVPSRFSGSGSGKDYTFTISSLQPEDIATYYCQQYWSSPLTFGGGTKVEIKR
B2: XENP35936 H2_L1.114 (antibody, V domains shown)
VH: B1 VH with H54N
VL: B1 VL with S94G
B3: XENP35929 H2_L1.107 (antibody, V domains shown)
VH: B1 VH with H54N
VL: B1 VL with S94A
B4: XENP36065 H2.118_L1 (antibody, V domains shown)
VH: B1 VH with H54N, F64K
VL: B1 VL
B5: XENP35883 H1.19_L1 (antibody, V domains shown)
VH: QVQLVQSGAEVKKPGASVKVSCKTSGYTFTEYTMHWVRQAPGQSLEWMGGIDPNNGNTHYNQKFQGRVTITVDKSASTAYMELSSLRSEDTATYYCARIYYFGRLYFDFWGAGTLVTVSS
VL: B1 VL
B6: XENP36022 H2.72_L1 (antibody, V domains shown)
VH: B1 VH with P53A, H54N
VL: B1 VL
B7: XENP36021 H2.71_L1 (antibody, V domains shown)
VH: B1 VH with P53L, H54N
VL: B1 VL
B8: XENP36066 H2.119_L1 (antibody, V domains shown)
VH: B1 VH with H54N, Q65E
VL: B1 VL
B9: XENP36041 H2.91_L1 (antibody, V domains shown)
VH: B1 VH with H54N, G56F
VL: B1 VL
B10: XENP35070 H2_L1.27 (antibody, V domains shown)
VH: B1 VH with H54N
VL: B1 VL with T56S
B11: XENP35062 H2_L1.19 (antibody, V domains shown)
VH: B1 VH with H54N
VL: B1 VL with T52S
B12: XENP35101 having H2.8_L1 (antibody, V domains shown)
VH: B1 VH with H54N, G56D
VL: B1 VL
B13: XENP35088 H1.4_L1 (antibody, V domains shown)
VH: B5 VH with P53A, T93V
VL: B1 VL
B14: XENP35066 H2_L1.23 (antibody, V domains shown)
VH: B1 VH with H54N
VL: B1 VL with L54R
B15: XENP35059 H2_L1.16 (antibody, V domains shown)
VH: B1 VH with H54N
VL: B1 VL with G50A
B16: XENP35102 having H2.9_L1 (antibody, V domains shown)
VH: B1 VH with H54N, G56A
VL: B1 VL
B17: XENP35065 H2_L1.22 (antibody, V domains shown)
VH: B1 VH with H54N
VL: B1 VL with S53Q
B18: XENP35096 H2.3_L1 (antibody, V domains shown)
VH: B1 VH with P53S, H54N
VL: B1 VL
B19: XENP35064 H2_L1.21 (antibody, V domains shown)
VH: B1 VH with H54N
VL: B1 VL with S53N
B20: XENP35097 H2.4_L1 (antibody, V domains shown)
VH: B1 VH with P53G, H54N
VL: B1 VL
B21: XENP35092 H1.8_L1 (antibody, V domains shown)
VH: B5 VH with G56D, T93V
VL: B1 VL
B22: XENP35047 H2_L1.4 (antibody, V domains shown)
VH: B1 VH with H54N
VL: B1 VL with I29V
B23: XENP35061 H2_L1.18 (antibody, V domains shown)
VH: B1 VH with H54N
VL: B1 VL with A51T
B24: XENP35091 H1.7_L1 (antibody, V domains shown)
VH: B5 VH with N55Q, T93V
VL: B1 VL
B25: XENP35100 H2.7_L1 (antibody, V domains shown)
VH: B1 VH with H54N, N55Q
VL: B1 VL
B26: XENP35093 (having C6-30 H1.9_L1) (antibody, V domains shown)
VH: B5 VH with G56A, T93V
VL: B1 VL
B27: XENP35087 H1.3_L1 (antibody, V domains shown)
VH: B5 VH with P53S, T93V
VL: B1 VL
B28: XENP35050 H2_L1.7 (antibody, V domains shown)
VH: B1 VH with H54N
VL: B1 VL with N31S
B29: XENP35044 H2_L1.1 (antibody, V domains shown)
VH: B1 VH with H54N
VL: B1 VL with E27Q

Substitutions are numbered along the chain they refer to.

For the first experiment, the target named is T1, human CLDN9. Put plainly: HEK293E cell binding; avid.
In the case of B1, it took 61.1 µg/mL to reach a half-maximal effect (EC50).
Still for that read-out and setting: for B2 the value was 57.4 µg/mL.
Regarding B3, the EC50 was determined as 99.1 µg/mL.
B4 registered an EC50 of 492 µg/mL.
Molecule B5 came in with an EC50 of 16.8 µg/mL.
Molecule B6 showed a half-maximal effective concentration (EC50) of 47.2 µg/mL.
In turn, B7 yielded an EC50 of 49.3 µg/mL.
Still for that read-out and setting: as for B8, the figure is 18 µg/mL; as for B9, 32.5 µg/mL.

A further experiment addresses T2, human CLDN6. Put plainly: HEK293E cell binding; avid.
B1 returned an EC50 of 1.34 µg/mL.
Molecule B2 came in with an EC50 of 0.829 µg/mL.
Molecule B3 had an EC50 of 0.792 µg/mL.
For the molecule B4, the EC50 amounted to 0.783 µg/mL.
In turn, B5 returned an EC50 of 0.617 µg/mL.
Take B6: the EC50 came to 0.514 µg/mL.
Same read-out and setting: as for B7, the figure is 0.902 µg/mL.
Regarding B8, the 50% effective concentration (EC50) is 0.567 µg/mL. This EC50 is about 1.6-fold lower than that of the molecule before.
Consider B9, for which the EC50 is 0.449 µg/mL.

The target of another experiment is T1, human CLDN9. Put plainly: HEK293E cell binding; avid. The source holds these as a separate data set.
The molecule B10 displayed an EC50 of 29.7 µg/mL.
In turn, B11 yielded an EC50 of 86.8 µg/mL.
For B12, the EC50 was found to be 1.06 µg/mL.
With B13, the midpoint of the response, the EC50, lay at 29.2 µg/mL.
Turning to B14, the EC50 was determined as 31.8 µg/mL. The EC50 values of the last two molecules are within 1.5-fold of each other.
The molecule B15 showed an EC50 of 32.7 µg/mL.
Take B16: the half-maximal effective concentration (EC50) was 1.43 µg/mL.
Take B17: the EC50 turned out to be 69.1 µg/mL.
As for B18, the EC50 came to 110 µg/mL.
Take B19: the concentration for a half-maximal effect (EC50) amounted to 14.1 µg/mL.
In the case of B20, a half-maximal response (EC50) required 72.9 µg/mL.
B21: the EC50 worked out at 25 µg/mL.
In the case of B22, the EC50 was found to be 17.6 µg/mL.
With B23, a half-maximal response (EC50) required 56.3 µg/mL.
For B24, the EC50 was 31.4 µg/mL. Compared with the last molecule, the EC50 is about 1.8-fold lower.
Consider B25, for which a half-maximal effect (EC50) was put at 63.5 µg/mL.
The same measure, in the same setting: as for B26, the figure is 53.1 µg/mL.
In turn, B27 yielded an EC50 of 31.8 µg/mL. Compared with the last molecule, the EC50 is about 1.7-fold lower.
As to B28, a half-maximal response (EC50) required 99.3 µg/mL.

The target of another experiment is T2, human CLDN6. Put plainly: HEK293E cell binding; avid. The source holds these as a separate data set.
For the molecule B10, the midpoint of the response, the EC50, lay at 1.18 µg/mL.
Consider B11, for which the EC50 came out at 1.23 µg/mL.
As for B12, the response was half-maximal at 24.8 µg/mL (EC50).
Same read-out and setting: as for B13, the figure is 1.29 µg/mL.
The same measure, in the same setting: as for B14, the figure is 1.59 µg/mL.
Regarding B29, the EC50 was 4.34 µg/mL.
The same measure, in the same setting: for B15 the value was 1.28 µg/mL; for B16, 3.53 µg/mL.
Molecule B17 had an EC50 of 1.48 µg/mL.
On the same count and under the same terms, as for B18, the figure is 1.24 µg/mL; as for B19, 0.979 µg/mL; as for B20, 1.1 µg/mL.
In turn, B21 showed an EC50 of 1.16 µg/mL.
Molecule B22 had an EC50 of 0.795 µg/mL. The EC50 values of the last two molecules are within 1.5-fold of each other.
On the same count and under the same terms, as for B23, the figure is 1.25 µg/mL; as for B24, 1.43 µg/mL.
On the same count and under the same terms, for B25 the value was 1.14 µg/mL.
Regarding B26, the EC50 worked out at 0.978 µg/mL.
Molecule B27 registered an EC50 of 1.2 µg/mL.
For the molecule B28, the midpoint of the response, the EC50, lay at 2.22 µg/mL.

In general, EC50 refers to the concentration at which the effect is half-maximal. A high value points to a less potent agent.
